Assay results reported in patent US20100144617.

Key:
[1] = molecular target: T1, Native porcine OXM, P01274
T1 chain: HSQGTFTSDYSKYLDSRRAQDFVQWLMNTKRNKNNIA

OXM2 = molecular target: T2, OXM2 (not fully specified)
T2 chain: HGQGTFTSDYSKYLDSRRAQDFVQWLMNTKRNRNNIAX

B1: recombinant soluble human DP-IV (protein)
chain: SRKTYTLTDYLKNTYRLKLYSLRWISDHEYLYKQENNILVFNAEYGNSSVFLENSTFDEFGHSINDYSISPDGQFILLEYNYVKQWRHSYTASYDIYDLNKRQLITEERIPNNTQWVTWSPVGHKLAYVWNNDIYVKIEPNLPSYRITWTGKEDIIYNGITDWVYEEEVFSAYSALWWSPNGTFLAYAQFNDTEVPLIEYSFYSDESLQYPKTVRVPYPKAGAVNPTVKFFVVNTDSLSSVTNATSIQITAPASMLIGDHYLCDVTWATQERISLQWLRRIQNYSVMDICDYDESSGRWNCLVARQHIEMSTTGWVGRFRPSEPHFTLDGNSFYKIISNEEGYRHICYFQIDKKDCTFITKGTWEVIGIEALTSDYLYYISNEYKGMPGGRNLYKIQLSDYTKVTCLSCELNPERCQYYSVSFSKEAKYYQLRCSGPGLPLYTLHSSVNDKGLRVLEDNSALDKMLQNVQMPSKKLDFIILNETKFWYQMILPPHFDKSKKYPLLLDVYAGPCSQKADTVFRLNWATYLASTENIIVASFDGRGSGYQGDKIMHAINRRLGTFEVEDQIEAARQFSKMGFVDNKRIAIWGWSYGGYVTSMVLGSGSGVFKCGIAVAPVSRWEYYDSVYTERYMGLPTPEDNLDHYRNSTVMSRAENFKQVEYLLIHGTADDNVHFQQSAQISKALVDVGVDFQAMWYTDEDHGIASSTAHQHIYTHMSHFIKQCFSLP
For B1, the “loss of potency at hGLP-1R (cAMP HTRF) after preincubation with DP-IV” value [1] was “loss of potency due to preincubation of the peptides with DP-IV” and the “loss of potency at hGLP-1R (cAMP HTRF) after preincubation with DP-IV” value (OXM2) was “loss of potency due to preincubation of the peptides with DP-IV”.
